Laboratory results reported in the supplement of paper PMC10899765.

What follows are sequences tested on MCF10A (assay: percent viability (nuclei count relative to siNT); higher = more viable cells). Conditions: 20 nM; 72 h.
Description: (§1)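 After 72 h, cells were fixed and stained with Hoechst and anti-fibrillarin, and nucleoli per nucleus were counted with CellProfiler. Values are plate-adjusted percent effect for the one-nucleolus and 5+ nucleoli phenotypes, normalised to siNT (0%) and to the positive controls siNOL11 or siKIF11 (100%), as the mean of biological triplicates. Percent viability is the nuclei count relative to siNT.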

Sequence	percent viability [%]
CCAGUAUUAACUGUGCUGCUGA [hsa-miR-16-1-3p]	85.1
CUGGGAGAAGGCUGUUUACUCU [hsa-miR-30c-2-3p]	21.9
UGUGUGUGUAGAGGAAGAAGGGA [hsa-miR-6867-5p]	13.1
UAACAGUCUACAGCCAUGGUCG [hsa-miR-132-3p]	112
GAAGAAUAGGAGGGACUUUGU [hsa-miR-6507-5p]	79.1
AGGUGGUCCGUGGCGCGUUCGC [hsa-miR-323a-5p]	19.8
CCUAGAAACUGUAAACUUAGUC [hsa-miR-8067]	108
GCAGCAUUCAUGUCCC [hsa-miR-4310]	62.6
UCUGGAUUGAAGAGACGACCCA [hsa-miR-6839-5p]	36.1
AGCAGCAUUGUACAGGGCUAUCA [hsa-miR-107]	22.7
CAUACAAUCUGACAUGUAUUU [hsa-miR-4666a-3p]	66.1
ACUGGAAUUGGAGUCAAAA [hsa-miR-6128]	105
UGAGGGAGUUGGGUGUAUA [hsa-miR-6129]	24.3
ACUGGGUAGGUGGGGCUCCAGG [hsa-miR-6861-5p]	31.9
UCUUACUCCCUCAGGCACUG [hsa-miR-550b-3p]	31
GGCAGGUUCUCACCCUCUCUAGG [hsa-miR-657]	44.7
GGCGGCGGGGAGGUAGGCAG [hsa-miR-8072]	49.8
UAGGGAUGGGAGGCCAGGAUGA [hsa-miR-6757-5p]	41.1
CAGCCCGGAUCCCAGCCCACUU [hsa-miR-3940-3p]	33.5
AGCUACAUUGUCUGCUGGGUUUC [hsa-miR-221-3p]	59.9

Sequence	percent viability [%]
CUAGCACACAGAUACGCCCAGA [hsa-miR-585-5p]	36.5
UCCCCUGCUCCCUUGUUCCCCAG [hsa-miR-6810-3p]	35.1
GAAGGACACUGGUGUCAACGGCU [hsa-miR-8080]	118
UUCUGGAUAACAUGCUGAAGCU [hsa-miR-5706]	176
AACAUUCAACCUGUCGGUGAGU [hsa-miR-181c-5p]	79
AGGUUCUGUGAUACACUCCGACU [hsa-miR-152-5p]	22
GGGGUUCCUGGGGAUGGGAUUU [hsa-miR-23a-5p]	103
UUUCCAUAGGUGAUGAGUCAC [hsa-miR-587]	86.7
GAAGUGCUUCGAUUUUGGGGUGU [hsa-miR-373-3p]	65.4
CUAUUAAGGACAUUUGUGAUUC [hsa-miR-4477a]	32.6
UGACUGAGCUUCUCCCCACAG [hsa-miR-6857-3p]	34.9
UCAAGGCCAGAGGUCCCACAGCA [hsa-miR-3922-5p]	30.9
UCCGAACUCUCCAUUCCUCUGC [hsa-miR-6716-3p]	166
CACCGACUCUGUCUCCUGCAG [hsa-miR-6510-3p]	69.9
CAGGGCAGAGGGCACAGGAAUCUGA [hsa-miR-6735-5p]	31.9
UGUAAACAUCCUACACUCUCAGC [hsa-miR-30c-5p]	69.4
GGGUCCCGGGGAGGGGGG [hsa-miR-4281]	100
CGGGCCGGAGGUCAAGGGCGU [hsa-miR-6781-5p]	46.3
CAGUGAUCGUCUCUGCUGGC [hsa-miR-8079]	41.6
AAACACCAUUGUCACACUCCAC [hsa-miR-3591-3p]	27.5

Sequence	percent viability [%]
ACCUUCCUCUCCAUGGGUCUUU [hsa-miR-3667-3p]	32
UGGUAGACUAUGGAACGUAGG [hsa-miR-379-5p]	31
UCGCGCCCCGGCUCCCGUUC [hsa-miR-1292-3p]	64.3
UGAAACUGGAGCGCCUGGAGGA [hsa-miR-4738-3p]	28.6
GUUAGGGCCAACAUCUCUUGG [hsa-miR-2909]	48.3
AAGAUGUGGAAAAAUUGGAAUC [hsa-miR-576-3p]	48
UUGCUAAGUAGGCUGAGAUUGA [hsa-miR-4639-5p]	22.7
UGUCUAUACUCUGUCACUUUAC [hsa-miR-4796-5p]	34.7
UUCACCCCUCUCACCUAAGCAG [hsa-miR-6802-3p]	63.6
AGACAGUAGUUCUUGCCUGGUU [hsa-miR-4645-3p]	52.7
UGCCCUAAAUGCCCCUUCUGGC [hsa-miR-18b-3p]	98.8
UGGCAGUGUAUUGUUAGCUGGU [hsa-miR-449a]	14
UUGGCUGGUCUCUGCUCCGCAG [hsa-miR-6842-3p]	24.9
CUGGGAGGGGCUGGGUUUGGC [hsa-miR-6779-5p]	36.8
CGCACCUGCCUCUCACCCACAG [hsa-miR-6804-3p]	74.2
UCUGGCUGUGCUGUAAUGCAG [hsa-miR-6504-5p]	54.2
UGCCUAGGCUGAGACUGCAGUG [hsa-miR-3135a]	25.7
UGGGGGCUGGGAUGGGCCAUGGU [hsa-miR-6848-5p]	22.5
ACUUCACCUGGUCCACUAGCCGU [hsa-miR-412]	118

What follows are sequences tested on MCF10A (assay: 5+ nucleoli phenotype percent effect (relative to siNT 0% and siKIF11 100%); higher = more cells with five or more nucleoli). Conditions: 20 nM; 72 h.
Description: as §1

Sequence	5+ nucleoli phenotype percent effect [%]
CCAGUAUUAACUGUGCUGCUGA [hsa-miR-16-1-3p]	-19.3
CUGGGAGAAGGCUGUUUACUCU [hsa-miR-30c-2-3p]	-29.4
UGUGUGUGUAGAGGAAGAAGGGA [hsa-miR-6867-5p]	-22.4
UAACAGUCUACAGCCAUGGUCG [hsa-miR-132-3p]	-13.6
GAAGAAUAGGAGGGACUUUGU [hsa-miR-6507-5p]	35.1
AGGUGGUCCGUGGCGCGUUCGC [hsa-miR-323a-5p]	-21.1
CCUAGAAACUGUAAACUUAGUC [hsa-miR-8067]	47.4
GCAGCAUUCAUGUCCC [hsa-miR-4310]	17.2
UCUGGAUUGAAGAGACGACCCA [hsa-miR-6839-5p]	-12.4
AGCAGCAUUGUACAGGGCUAUCA [hsa-miR-107]	-26.1
CAUACAAUCUGACAUGUAUUU [hsa-miR-4666a-3p]	15.8
ACUGGAAUUGGAGUCAAAA [hsa-miR-6128]	36.5
UGAGGGAGUUGGGUGUAUA [hsa-miR-6129]	-7.69
ACUGGGUAGGUGGGGCUCCAGG [hsa-miR-6861-5p]	-15.5
UCUUACUCCCUCAGGCACUG [hsa-miR-550b-3p]	-5.7
GGCAGGUUCUCACCCUCUCUAGG [hsa-miR-657]	15.8
GGCGGCGGGGAGGUAGGCAG [hsa-miR-8072]	-2.29
UAGGGAUGGGAGGCCAGGAUGA [hsa-miR-6757-5p]	2.44
CAGCCCGGAUCCCAGCCCACUU [hsa-miR-3940-3p]	-8.21
AGCUACAUUGUCUGCUGGGUUUC [hsa-miR-221-3p]	-17.8
CUAGCACACAGAUACGCCCAGA [hsa-miR-585-5p]	-45.7
UCCCCUGCUCCCUUGUUCCCCAG [hsa-miR-6810-3p]	4.97
GAAGGACACUGGUGUCAACGGCU [hsa-miR-8080]	19.9
UUCUGGAUAACAUGCUGAAGCU [hsa-miR-5706]	51.3
AACAUUCAACCUGUCGGUGAGU [hsa-miR-181c-5p]	3.6
AGGUUCUGUGAUACACUCCGACU [hsa-miR-152-5p]	-38.1
GGGGUUCCUGGGGAUGGGAUUU [hsa-miR-23a-5p]	40.3
UUUCCAUAGGUGAUGAGUCAC [hsa-miR-587]	39.4
GAAGUGCUUCGAUUUUGGGGUGU [hsa-miR-373-3p]	47.5
